In PMC8037251, “Molecular Characterization of the Extracellular Domain of Human Junctional Adhesion Proteins” (International Journal of Molecular Sciences, 2021):

B1: MBP-fused extracellular domain of human JAM4 (Gly34-Arg286) (domain or fragment, UniProt Q9NSI5 34-286, looked up)
chain: GSGSGNEVIEGPQNARVLKGSQARFNCTVSQGWKLIMWALSDMVVLSVRPMEPIITNDRFTSQRYDQGGNFTSEMIIHNVEPSDSGNIRCSLQNSRLHGSAYLTVQVMGELFIPSVNLVVAENEPCEVTCLPSHWTRLPDISWELGLLVSHSSYYFVPEPSDLQSAVSILALTPQSNGTLTCVATWKSLKARKSATVNLTVIRCPQDTGGGINIPGVLSSLPSLGFSLPTWGKVGLGLAGTMLLTPTCTLTIR
notes: JAM4, human, extracellular domain, Gly34-Arg286 of Q9NSI5; No protease site between MBP and the target in the final design; Decamer by size exclusion; source: E. coli SHuffle T7 Express, purified (amylose resin, size exclusion chromatography); not shown: MBP, N-terminal, kept
B2: MBP-fused extracellular domain of human JAM-B (Gly28-Ser238) (domain or fragment, UniProt P57087 28-238, looked up)
chain: GFSAPKDQQVVTAVEYQEAILACKTPKKTVSSRLEWKKLGRSVSFVYYQQTLQGDFKNRAEMIDFNIRIKNVTRSDAGKYRCEVSAPSEQGQNLEEDTVTLEVLVAPAVPSCEVPSSALSGTVVELRCQDKEGNPAPEYTWFKDGIRLLENPRLGSQSTNSSYTMNTKTGTLQFNTVSKLDTGEYSCEARNSVGYRRCPGKRMQVDDLNIS
notes: JAM-B, human, extracellular domain, Gly28-Ser238 of P57087; No protease site between MBP and the target in the final design; Octamer by size exclusion; also called junctional adhesion molecule B; source: E. coli SHuffle T7 Express, purified (amylose resin, size exclusion chromatography); not shown: MBP, N-terminal, kept
B3: MBP-fused extracellular domain of human epithelial cadherin (Val102-Asp312) (domain or fragment)
chain: VIPPISCPENEKGPFPKNLVQIKSNKDKEGKVFYSITGQGADTPPVGVFIIERETGWLKVTEPLDRERIATYTLFSHAVSSNGNAVEDPMEILITVTDQNDNKPEFTQEVFKGSVMEGALPGTSVMEVTATDADDDVNTYNAAIAYTILSQDPELPDKNMFTINRNTGVISVVTTGLDRESFPTYTLVVQAADLQGEGLSTTATAVITVTD
B4: MBP-fused extracellular domain of human JAM-A (Gly27-Arg228) (domain or fragment, UniProt Q9Y624 27-228, looked up)
chain: GSVTVHSSEPEVRIPENNPVKLSCAYSGFSSPRVEWKFDQGDTTRLVCYNNKITASYEDRVTFLPTGITFKSVTREDTGTYTCMVSEEGGNSYGEVKVKLIVLVPPSKPTVNIPSSATIGNRAVLTCSEQDGSPPSEYTWFKDGIVMPTNPKSTRAFSNSSYVLNPTTGELVFDPLSASDTGEYSCEARNGYGTPMTSNAVR
notes: JAM-A, human, extracellular domain, Gly27-Arg228 of Q9Y624; No protease site between MBP and the target in the final design (pET28a-MBP, NdeI/XhoI); also called junctional adhesion molecule A; source: E. coli SHuffle T7 Express, purified (amylose resin, size exclusion chromatography); not shown: MBP, N-terminal, kept
B5: MBP-fused extracellular domain of human JAM-C (Gly30-Glu236) (domain or fragment, UniProt Q9BX67 30-236, looked up)
chain: GAVNLKSSNRTPVVQEFESVELSCIITDSQTSDPRIEWKKIQDEQTTYVFFDNKIQGDLAGRAEILGKTSLKIWNVTRRDSALYRCEVVARNDRKEIDEIVIELTVQVKPVTPVCRVPKAVPVGKMATLHCQESEGHPRPHYSWYRNDVPLPTDSRANPRFRNSSFHLNSETGTLVFTAVHKDDSGQYYCIASNDAGSARCEEQEME
notes: JAM-C, human, extracellular domain, Gly30-Glu236 of Q9BX67; No protease site between MBP and the target in the final design; Tetramer by size exclusion; also called junctional adhesion molecule C; source: E. coli SHuffle T7 Express, purified (amylose resin, size exclusion chromatography); not shown: MBP, N-terminal, kept

Legend:
[1] = biological target: the molecule itself; test: SEC; ENrich SEC 650 10 x 300 column, PBS as running buffer; peak positions compared with BioRad size exclusion standards; oligomeric state of the MBP fusion
[2] = biological target: the molecule itself; test: SPR; OpenSPR (Nicoya), ligand protein (0.100 mg) amine-coupled to a Carboxy sensor chip; 1 M sodium caprate injected to disrupt preformed interactions and after each analyte; analyte 12.5-100 ug per 200 uL injection, triplicate; global fit, 1:1 Langmuir model, TraceDraw
[3] = biological target: B1; test: as above; conditions: both partners purified
[4] = biological target: B4; test: SPR; as the other SPR (OpenSPR, amine-coupled ligand on a Carboxy chip, caprate between injections, 1:1 Langmuir fit) but in the presence of 3 mM CaCl2 (E-CAD experiments); conditions: both partners purified
[5] = biological target: the molecule itself; test: as above
[6] = biological target: B2; test: SPR; OpenSPR (Nicoya), ligand protein (0.100 mg) amine-coupled to a Carboxy sensor chip; 1 M sodium caprate injected to disrupt preformed interactions and after each analyte; analyte 12.5-100 ug per 200 uL injection, triplicate; global fit, 1:1 Langmuir model, TraceDraw; conditions: both partners purified

Q: B1 was tested. Which “stoichiometry N” value [1] did it give?
A: 10

Q: What about the Kd [2] of the same binder?
A: 0.139 nM

Q: And the koff [2]?
A: 2.04e-07 s⁻¹

Q: What about the kon [2] of the same binder?
A: 1670 M⁻¹ s⁻¹

Q: For B2, which “stoichiometry N” value [1] is on record?
A: 8

Q: And the Kd [3]?
A: 159 nM

Q: What about the koff [3] of the same binder?
A: 0.000128 s⁻¹

Q: And the kon [3]?
A: 1210 M⁻¹ s⁻¹

Q: What about the Kd [2] of the same binder?
A: 9.97 nM

Q: What about the koff [2] of the same binder?
A: 5.36e-05 s⁻¹

Q: What about the kon [2] of the same binder?
A: 4800 M⁻¹ s⁻¹

Q: B3 was tested. Which “stoichiometry N” value [1] did it give?
A: 2

Q: And the Kd [4]?
A: 308 nM

Q: What about the koff [4] of the same binder?
A: 0.000708 s⁻¹

Q: And the kon [4]?
A: 2340 M⁻¹ s⁻¹

Q: And the Kd [5]?
A: 197 nM

Q: And the koff [5]?
A: 0.000696 s⁻¹

Q: And the kon [5]?
A: 4650 M⁻¹ s⁻¹

Q: Which results are given for B4?
A: stoichiometry N [1]: 2; Kd [6]: 2.82 nM; koff [6]: 5.09e-05 s⁻¹; kon [6]: 16500 M⁻¹ s⁻¹; Kd [3]: 2.33 nM; koff [3]: 4.09e-06 s⁻¹; kon [3]: 1600 M⁻¹ s⁻¹; Kd [2]: 76.6 nM; koff [2]: 0.000838 s⁻¹; kon [2]: 13100 M⁻¹ s⁻¹

Q: How did the “stoichiometry N” value [1] turn out when B5 was run?
A: 4

Q: What about the Kd [6] of the same binder?
A: 0.203 nM

Q: What about the koff [6] of the same binder?
A: 1.76e-05 s⁻¹

Q: And the kon [6]?
A: 85400 M⁻¹ s⁻¹

Q: What about the Kd [3] of the same binder?
A: 0.0925 nM

Q: And the koff [3]?
A: 1.96e-07 s⁻¹

Q: And the kon [3]?
A: 2030 M⁻¹ s⁻¹

Q: And the Kd [2]?
A: 30.2 nM

Q: And the koff [2]?
A: 2.26e-05 s⁻¹

Q: What about the kon [2] of the same binder?
A: 782 M⁻¹ s⁻¹
